Experimental data reported in patent US20080058270A1 (published 2008).

Biological target: T1, lecithin:cholesterol acyltransferase (LCAT), purified from human plasma (human, UniProt P04180 25-440)
T1 sequence (looked up): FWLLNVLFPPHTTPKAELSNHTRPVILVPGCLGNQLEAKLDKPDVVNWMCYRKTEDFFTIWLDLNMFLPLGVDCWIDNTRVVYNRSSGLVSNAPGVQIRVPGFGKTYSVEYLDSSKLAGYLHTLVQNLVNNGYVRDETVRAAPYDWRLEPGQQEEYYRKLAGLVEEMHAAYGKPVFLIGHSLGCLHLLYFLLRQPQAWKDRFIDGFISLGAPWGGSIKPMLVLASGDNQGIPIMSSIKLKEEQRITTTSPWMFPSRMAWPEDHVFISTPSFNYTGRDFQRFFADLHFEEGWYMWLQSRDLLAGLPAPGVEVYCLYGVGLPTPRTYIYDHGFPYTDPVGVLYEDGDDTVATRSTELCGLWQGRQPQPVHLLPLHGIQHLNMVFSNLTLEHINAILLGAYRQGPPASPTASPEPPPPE
Assay: cell-based or functional assay

LDDLLQKWAEAFNQLLKK [peptide 237]
ACTIVITY (%) LCAT: 111%
